From US20240025984A1 (FLUX THERAPEUTICS, published 2024)

Legend:
Experiment in all cases: cell-based or functional assay
[1] = biological target: Shank3-nanoluc-alfa-tag-fusion (Homo sapiens (Human), UniProt Q9BYB0 76-1806)
[2] = biological target: T1, CSTB-nanoluc-alfa-tag-fusion
T1 chain: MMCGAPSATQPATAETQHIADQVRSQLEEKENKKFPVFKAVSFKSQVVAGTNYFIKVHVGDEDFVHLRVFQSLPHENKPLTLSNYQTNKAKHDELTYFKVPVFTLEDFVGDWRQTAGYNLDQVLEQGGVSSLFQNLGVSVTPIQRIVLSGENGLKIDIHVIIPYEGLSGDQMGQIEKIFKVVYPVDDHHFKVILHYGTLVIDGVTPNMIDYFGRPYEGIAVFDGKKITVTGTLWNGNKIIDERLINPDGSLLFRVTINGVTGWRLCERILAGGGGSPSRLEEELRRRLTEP

[3] = biological target: T2, PYDC2-nanoluc-alfa-tag-fusion
T2 chain: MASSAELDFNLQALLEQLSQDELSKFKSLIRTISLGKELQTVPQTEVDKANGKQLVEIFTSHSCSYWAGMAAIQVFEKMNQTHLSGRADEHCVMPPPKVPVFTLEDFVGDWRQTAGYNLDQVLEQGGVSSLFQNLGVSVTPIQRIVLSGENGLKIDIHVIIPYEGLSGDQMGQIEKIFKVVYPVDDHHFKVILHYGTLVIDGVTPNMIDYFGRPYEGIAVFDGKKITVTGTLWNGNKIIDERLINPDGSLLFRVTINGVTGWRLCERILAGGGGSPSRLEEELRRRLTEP

[4] = biological target: T3, PCBD1-nanoluc-alfa-tag-fusion
T3 chain: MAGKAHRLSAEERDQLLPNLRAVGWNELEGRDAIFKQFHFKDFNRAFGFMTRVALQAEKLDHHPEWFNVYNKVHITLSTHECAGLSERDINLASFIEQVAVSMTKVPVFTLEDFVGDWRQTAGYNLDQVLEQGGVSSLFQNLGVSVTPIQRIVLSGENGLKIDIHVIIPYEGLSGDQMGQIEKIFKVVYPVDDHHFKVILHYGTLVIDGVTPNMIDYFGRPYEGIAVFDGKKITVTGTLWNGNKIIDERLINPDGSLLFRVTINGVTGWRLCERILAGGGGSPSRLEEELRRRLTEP

[5] = biological target: T4, SYNGAP1-nanoluc-alfa-tag-fusion
T4 chain: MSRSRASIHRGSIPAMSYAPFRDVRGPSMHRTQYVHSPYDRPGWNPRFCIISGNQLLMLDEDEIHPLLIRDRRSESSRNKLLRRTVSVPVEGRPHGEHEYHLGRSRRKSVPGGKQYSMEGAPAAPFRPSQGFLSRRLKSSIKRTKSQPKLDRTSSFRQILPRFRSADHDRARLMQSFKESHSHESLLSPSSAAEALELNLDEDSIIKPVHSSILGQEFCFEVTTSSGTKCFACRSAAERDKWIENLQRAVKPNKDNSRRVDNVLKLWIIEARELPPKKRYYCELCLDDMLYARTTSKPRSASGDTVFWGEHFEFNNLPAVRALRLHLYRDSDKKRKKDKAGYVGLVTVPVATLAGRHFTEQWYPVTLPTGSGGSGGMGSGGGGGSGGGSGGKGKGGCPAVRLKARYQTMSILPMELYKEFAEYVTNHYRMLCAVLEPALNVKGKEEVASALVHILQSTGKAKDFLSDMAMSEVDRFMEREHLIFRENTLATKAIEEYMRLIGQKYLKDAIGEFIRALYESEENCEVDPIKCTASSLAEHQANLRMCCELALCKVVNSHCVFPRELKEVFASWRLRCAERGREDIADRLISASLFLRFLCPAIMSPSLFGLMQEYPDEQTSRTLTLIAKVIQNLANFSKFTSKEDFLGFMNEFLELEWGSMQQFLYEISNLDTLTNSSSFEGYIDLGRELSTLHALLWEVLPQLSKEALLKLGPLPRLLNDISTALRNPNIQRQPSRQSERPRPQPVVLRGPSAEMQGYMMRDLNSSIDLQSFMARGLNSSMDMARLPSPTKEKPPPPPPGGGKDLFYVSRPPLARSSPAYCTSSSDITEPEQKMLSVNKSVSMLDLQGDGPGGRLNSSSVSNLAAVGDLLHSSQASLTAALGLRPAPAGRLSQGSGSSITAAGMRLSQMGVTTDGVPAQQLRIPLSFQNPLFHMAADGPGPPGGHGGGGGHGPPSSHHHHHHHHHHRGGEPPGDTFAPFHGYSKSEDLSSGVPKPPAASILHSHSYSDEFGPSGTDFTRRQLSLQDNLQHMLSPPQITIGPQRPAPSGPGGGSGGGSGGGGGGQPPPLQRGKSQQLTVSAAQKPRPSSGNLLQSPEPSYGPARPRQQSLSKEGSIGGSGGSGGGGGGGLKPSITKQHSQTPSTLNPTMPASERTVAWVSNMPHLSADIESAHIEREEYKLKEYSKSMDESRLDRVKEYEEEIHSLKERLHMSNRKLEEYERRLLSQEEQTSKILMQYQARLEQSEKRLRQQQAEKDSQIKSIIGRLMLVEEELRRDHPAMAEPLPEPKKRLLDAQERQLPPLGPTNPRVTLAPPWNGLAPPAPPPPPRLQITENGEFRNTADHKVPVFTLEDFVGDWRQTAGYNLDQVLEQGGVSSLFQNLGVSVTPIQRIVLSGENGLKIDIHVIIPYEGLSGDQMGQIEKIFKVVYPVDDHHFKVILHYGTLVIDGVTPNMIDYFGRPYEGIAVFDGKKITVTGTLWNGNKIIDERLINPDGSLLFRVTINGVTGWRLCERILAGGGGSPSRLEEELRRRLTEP

B1: FireflyLuciferase-P2A-a_alfatag_nano-Cezanne (other)
chain: MEDAKNIKKGPAPFYPLEDGTAGEQLHKAMKRYALVPGTIAFTDAHIEVDITYAEYFEMSVRLAEAMKRYGLNTNHRIVVCSENSLQFFMPVLGALFIGVAVAPANDIYNERELLNSMGISQPTVVFVSKKGLQKILNVQKKLPIIQKIIIMDSKTDYQGFQSMYTFVTSHLPPGFNEYDFVPESFDRDKTIALIMNSSGSTGLPKGVALPHRTACVRFSHARDPIFGNQIIPDTAILSVVPFHHGFGMFTTLGYLICGFRVVLMYRFEEELFLRSLQDYKIQSALLVPTLFSFFAKSTLIDKYDLSNLHEIASGGAPLSKEVGEAVAKRFHLPGIRQGYGLTETTSAILITPEGDDKPGAVGKVVPFFEAKVVDLDTGKTLGVNQRGELCVRGPMIMSGYVNNPEATNALIDKDGWLHSGDIAYWDEDEHFFIVDRLKSLIKYKGYQVAPAELESILLQHPNIFDAGVAGLPDDDAGELPAAVVVLEHGKTMTEKEIVDYVASQVTTAKKLRGGVVFVDEVPKGLTGKLDARKIREILIKAKKGGKIAVTRLKGSGATNFSLLKQAGDVEENPGPRSGTGSSGEVQLQESGGGLVQPGGSLRLSCTASGVTISALNAMAMGWYRQAPGERRVMVAAVSERGNAMYRESVQGRFTVTRDFTNKMVSLQMDNLKPEDTAVYYCHVLEDRVDSFHDYWGQGTQVTVSSGAPGSGPPSFSEGSGGSRTPEKGFSDREPTRPPRPILQRQDDIVQEKRLSRGISHASSSIVSLARSHVSSNGGGGGSNEHPLEMPICAFQLPDLTVYNEDFRSFIERDLIEQSMLVALEQAGRLNWWVSVDPTSQRLLPLATTGDGNCLLHAASLGMWGFHDRDLMLRKALYALMEKGVEKEALKRRWRWQQTQQNKESGLVYTEDEWQKEWNELIKLASSEPRMHLGTNGANCGGVESSEEPVYESLEEFHVFVLAHVLRRPIVVVADTMLRDSGGEAFAPIPFGGIYLPLEVPASQCHRSPLVLAYDQAHFSALVSMEQKENTKEQAVIPLTDSEYKLLPLHFAVDPGKGWEWGKDDSDNVRLASVILSLEVKLHLLHSYMNVKWIPLSSDAQAPLAQ
B1 was tested, and the “fold increase in SHANK3 protein expression relative to the control (NLuc signal normalised to firefly luciferase signal)” value [1] was 2.4 fold, the “fold increase in CSTB protein expression (NLuc signal normalised to firefly luciferase signal)” value [2] was 1.61 fold and the “fold increase in PYDC2 protein expression (NLuc signal normalised to firefly luciferase signal)” value [3] was 2.64 fold. The “fold increase in PCBD1 protein expression (NLuc signal normalised to firefly luciferase signal)” value [4] was 1.13 fold and the “fold increase in SYNGAP1 protein expression relative to the control (NLuc signal normalised to firefly luciferase signal)” value [5] was 3.1 fold.
